Assay results as given in article PMC9870165.

What was measured:
[1] = biological target: ZIKV E protein on wild-type Zika virus H/PF/2013 in culture supernatant (Zika virus (strain H/PF/2013)); experiment: ELISA; ZIKV capture ELISA: virus in culture supernatant captured by plate-bound mAb 4G2; serially diluted Fabs added 1 h at 37°C; anti-human Fab alkaline phosphatase; EC50 from titration
[2] = biological target: recombinant ZIKV E protein (ectodomain of Zika virus envelope glycoprotein E) (Zika virus); experiment: crystal structure; recombinant ZIKV E and G9E Fab mixed 1:1.2 at room temperature for 30 min, complex purified on Superdex 200-increase; crystals in 100 mM HEPES pH 7.5, 10% (w/v) PEG 8000; 3.4 Å

Question: How did the fold reduction in binding compared to WT G9E [1] turn out when “G9E-S2 Fab (paratope mutant D57S, Q58A, K76S)” was run?
Answer: 10 fold

Question: For “recombinant ZIKV E protein (ectodomain of Zika virus envelope glycoprotein E) (domain or fragment)”, which stoichiometry N [2] is on record?
Answer: 2

Question: For “G9E-S1/2 Fab (paratope mutant D53A, D54A, D57S, Q58A, K76S)”, which fold weaker binding than G9E-S2 [1] is on record?
Answer: 30 fold
